Residue numbers refer to the chain shown, from its start. Numbers in names are those of the source. Where two headings read alike, the source gives them in different places.

The source of these data is patent publication US20240002497A1 (Merck Sharp & Dohme, published 2024).

In assay [1] the target is T1, huNav1.7α + β1-β2-β3 (human Nav1.7α co-expressed with Navβ1, Navβ2 and Navβ3) (human).
T1 construct: also called huNav1.7-beta1-beta2-beta3
As to the kind of experiment: binding FACS, HEK FlpIn cells.

Assay [2] concerns the target T2, huNav1.7α + β1 (human Nav1.7α co-expressed with Navβ1) (human, UniProt Q15858 1-1988; Q07699 19-218).
T2 construct: also called HEK293 human Nav1.7α + β1; HEKa/β1 Nav1.7α
As to the kind of experiment: binding FACS, HEKa/β1 cells.

The target in assay [3] is T3, huNav1.7α (human Nav1.7 alpha subunit, expressed without β subunits) (human, UniProt Q15858 1-1988).
T3 construct: also called HEK293 human Nav1.7α; HEKa Nav1.7α
As to the kind of experiment: binding FACS, HEKa cells.

In assay [4] the target is T4, rhNav1.7α+β1-β2-β3 (rhesus monkey α subunit with human β …).
T4 construct: P2A cleaves it into α, β1, β2, β3; also called rhNav1.7-beta1-beta2-beta3
As to the kind of experiment: binding FACS, CHO FlpIn cells.

Assay [5] addresses huNav1.7α + β1 (human). As to the kind of experiment: cell-based or functional assay.
For assay [6], the target named is T5, huNav1.7α+β1 (human, UniProt Q15858 1-1988; Q07699 19-218). As to the kind of experiment: cell-based or functional assay.
For assay [7], the target named is T5, huNav1.7α+β1. As to the kind of experiment: binding FACS, HEKa/β1 cells. The essentials:
(§1)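 Cells at 1×10^5 per well incubated 30 min at 4 °C with purified FLAG3-tagged ISVD in FACS buffer (PBS, 10% FBS, NaN₃); bound ISVD detected via murine anti-Flag by flow cytometry, dead cells excluded with 1 μg/mL propidium iodide.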

Assay [8] addresses T6, huNav1.7α (human, UniProt Q15858 1-1988).
T6 construct: HEK cells expressing the α subunit alone; also called HEKa; HEK huNav1.7α
As to the kind of experiment: binding FACS, HEKa cells. The essentials: as §1

Assay [9] concerns the target T7, huNav1.7α+β1-β2-β3 (human, UniProt Q15858 1-1988; Q07699 19-218; O60939 30-215; Q9NY72 23-215).
T7 construct: 5N11S variant; also called huNav1.7-beta1-beta2-beta3; huNav1.7α+Navβ1-Navβ2-Navβ3
As to the kind of experiment: binding FACS, HEK FlpIn cells.

Assay [10] deals with T8, huNav1.7α (human, UniProt Q15858 1-1988).
T8 construct: HEK cells expressing the α subunit without β subunits; also called huNav1.7 (alpha-subunit); Human Nav1.7α
As to the kind of experiment: binding FACS, HEK.

Assay [11] addresses T9, huNav1.7α + β1 (human).
T9 construct: HEK293 cells; also called huNav1.7-beta1; huNav1.7-β1
As to the kind of experiment: binding FACS, HEK.

Assay [12] deals with T9, huNav1.7α + β1. As to the kind of experiment: cell-based or functional assay. This is another data set of the same source.
Assay [13] deals with T10, huNav1.7α + β1-β2-β3 (human, UniProt Q15858 1-1988; A5A6L6 19-218; O60939 30-215; Q2KI11 23-215).
T10 construct: also called huNav1.7-beta1-beta2-beta3; huNav1.7-β1-β2-β3
As to the kind of experiment: competition FACS vs EC25 of F103275B05(N93R), CHO FlpIn.

In assay [14] the target is T11, rhNav1.7α + β1-β2-β3 (rhesus monkey).
T11 construct: also called rhNav1.7-beta1-beta2-beta3; rhNav1.7-β1-β2-β3
As to the kind of experiment: competition FACS vs EC40 of F103275B05(N93R), CHO FlpIn.

For assay [15], the target named is T10, huNav1.7α + β1-β2-β3. As to the kind of experiment: competition FACS vs EC25 of F103275B05(N93R), HEK FlpIn.
Assay [16] concerns the target T10, huNav1.7α + β1-β2-β3. As to the kind of experiment: cell-based or functional assay.
Assay [17] concerns the target T8, huNav1.7α. As to the kind of experiment: cell-based or functional assay.
The target in assay [18] is T8, huNav1.7α. As to the kind of experiment: competition FACS vs EC25 of F103275B05(N93R), HEK.
In assay [19] the target is T9, huNav1.7α + β1. As to the kind of experiment: competition FACS vs EC25 of F103275B05(N93R), HEK.
The target of assay [20] is T9, huNav1.7α + β1. As to the kind of experiment: cell-based or functional assay. This is another data set of the same source.

B1: F010302307 (VHH)
VHH: EVQLVESGGGVVQPGGSLRLSCAASGRILRIGYMRWYRQAPGKQREFVARITDDSATGYADSVKGRFTISRDAAKNTVYLQMNSLRPEDTALYYCEALVTASVRGGSIHSGTYWGQGTLVTVSS
notes: also called F0103387G05(L11V, A14P, D23A, H37Y, G40A, A41P, D58G, N73A, N82bS, N83R, V89L, R105Q)
As to B1, the concentration giving a half-maximal response (EC50) (usually the concentration giving half of the maximal effect) in assay [1] turned out to be 0.0029 µM; in [2], 0.0019 µM; in [3] it was 0.0028 µM. The same molecule had a Bmax in assay [3] of 100%.

B2: F010302308 (VHH)
VHH: B1 VHH with A73Y
notes: also called F0103387G05(L11V, A14P, D23A, H37Y, G40A, A41P, D58G, N73Y, N82bS, N83R, V89L, R105Q)
For B2, the EC50 is 0.002 µM in assay [1], 0.0013 µM in assay [2] and 0.0018 µM in [3]. Also, the Bmax in [3] was determined as 100%.

B3: F010302309 (VHH)
VHH: B1 VHH with A73Q
notes: also called F0103387G05(L11V, A14P, D23A, H37Y, G40A, A41P, D58G, N73Q, N82bS, N83R, V89L, R105Q)
On to B3, for which the figures for the half-maximal effective concentration (EC50) in assay [1], in assay [2] and in assay [3] were 0.0023 µM, 0.0015 µM and 0.0022 µM, respectively. For the same molecule, the Bmax in assay [3] was determined as 100%.

B4: F010302341 (VHH)
VHH: EVQLVESGGGVVQPGGSLRLSCAASSRQFIRDVFTGWYRQAPGKQRELVARIYNEGNTNYADSAKGRFTISRDNAKKTVYLQMNSLRPEDTALYYCLFSGTISTGREYRSGDYWGQGTLVTVSS
notes: F010302365 background plus A28Q, R39Q, G54E
For B4, the binding result in [4] is “no binding”.

B5: F010302357 (VHH)
VHH: B4 VHH with A64V
notes: F010302365 background plus A28Q, R39Q, G54E, A63V
With B5, the binding result in [4] is reported as “no binding”.

B6: F010302366 (VHH)
VHH: B4 VHH with Q28A, E55G
notes: F010302365 background plus R39Q
With B6, in assay [4], the binding result is “no binding”.

B7: F010302365 (VHH)
VHH: B4 VHH with Q28A, Q40R, E55G
notes: also called F0103464B09(L11V, T24A, T25S, V40A, E44Q, F62S, S68T, M77T, T79Y, R81Q, S82aN, N82bS, K83R, G88A, V89L, N99S)
Take B7: in [4], the binding result was “no binding”.

B8: F010301162 (VHH)
VHH: EVQLVESGGGLVQPGGSLRLSCAASGMLFNRNTQGWYRQAPGKQRELVAFIFSGGWTNYNDSVKGRFTISRDNAKRTMYLQMNSLKPEDSAIYYCSLSRYQGQGTLVTVSS
B8: in assay [5], the “Qpatch IC50” value was found to be 0.032 µM.

B9: F010301080 (VHH)
VHH: B8 VHH with R31A, S53W, W56Y, T57V, N58T, Q101L
B9: in [5], the “Qpatch IC50” value was determined as 0.014 µM.

B10: F010301191 (VHH)
VHH: B8 VHH with S96A, R99V
For the molecule B10, the “Qpatch IC50” value in assay [5] was 0.063 µM.

B11: F010301090 (VHH)
VHH: B8 VHH with R31A, N58T
On to B11, for which the “Qpatch IC50” value in assay [5] was 0.022 µM.

B12: F010301129 (VHH)
VHH: B8 VHH with R31A, S96A
Consider B12, for which the “Qpatch IC50” value in assay [5] was found to be 0.126 µM.

B13: F010301162 (VHH)
VHH: B8 VHH
notes: vs F0103265A11: A31R, Y56W, V60N, L103Q
B13: the “IC50 [M], electrophysiology” value in [6] was 3.2e-08 M. For the same molecule, in [7], the “Bmax relative to '535” value stood at 115% and the EC50 was 0.0038 µM.

B14: F010301129 (VHH)
VHH: B8 VHH with R31A, S96A
notes: vs F0103265A11: Y56W, V60N, S93A, L103Q
Regarding B14, the “IC50 [M], electrophysiology” value in [6] is 1.3e-07 M. In assay [7], the “Bmax relative to '535” value turned out to be 103% and the EC50 came out at 0.0036 µM.

B15: F010301191 (VHH)
VHH: B8 VHH with S96A, R99V
notes: vs F0103265A11: A31R, Y56W, V60N, S93A, R101V, L103Q
Turning to B15, the “IC50 [M], electrophysiology” value in assay [6] was 6.3e-08 M. For the same molecule, in assay [7], the “Bmax relative to '535” value was determined as 119% and the EC50 came out at 0.0041 µM.

B16: F010301090 (VHH)
VHH: B8 VHH with R31A, N58T
notes: vs F0103265A11: Y56W, N58T, V60N, L103Q
For B16, the “IC50 [M], electrophysiology” value in [6] turned out to be 2.2e-08 M. Also, in assay [7], the “Bmax relative to '535” value was determined as 102% and a half-maximal effect (EC50) was put at 0.0048 µM.

B17: F010301080 (VHH)
VHH: B8 VHH with R31A, S53W, W56Y, T57V, N58T, Q101L
notes: also called F0103265A11(S53W, T57V, N58T, V60N)
Take B17: in assay [6], the “IC50 [M], electrophysiology” value was found to be 1.4e-08 M. Also, the 50% effective concentration (EC50) came to 0.026 µM in assay [8], 0.0051 µM in [9] and 0.003 µM in [7]. Also, the “Bmax relative to '535” value in assay [7] is 122%.

B18: 65ASP (Fc fusion)
chain: EVQLVESGGGLVQPGGSLRLSCAASGSIFNINSMAWYRRAPGKQRELVASSTNGGSTNYADSVKGRFTISRDNAKRVYLQMNSLTPEDTAVYYCNALLQPSIYDISRTYWGQGTLVTVSS
notes: also called F0103275B05-5GS-Fc; not shown: 5GS linker; Fc moiety
For the molecule B18, the EC50 worked out at 0.021 µM in assay [10] and 0.045 µM in [11]. Moreover, the “Qpatch IC50 [M], HEK cells” value in assay [12] was determined as 1.2e-07 M.

B19: F010300468 (VHH)
VHH: B18 chain with N95R
notes: also called F0103275B05(N93R) + FLAG3-HIS6; F103275B05(N93R) + FLAG3-HIS6
Regarding B19, the IC50 (commonly the concentration that gives 50% inhibition) in assay [13] came to 0.13 µM; in [14] it was 0.077 µM; in assay [15], 0.097 µM; in assay [18], 0.049 µM; in assay [19], 0.067 µM. The entries for the “Qpatch IC50” value in assay [16] and in assay [17] were 0.099 µM and 0.057 µM, respectively.

B20: F010301558 (VHH)
VHH: EVQLVESGGGLVQAGGSLRLSCAASGRILRIGYMRWHRQGAGKQREFVARITGDSATGYADSVKGRFTISRDNAKNTVYLQMNNLNPEDTAVYYCEALVTASVRGGSIHSGTYWGRGTLVTVSS
With B20, in [20], the “Qpatch IC50” value turned out to be 0.008 µM.

B21: F010302391 (VHH)
VHH: B1 VHH with D53G, D54G, A73N
B21: the “Qpatch IC50” value in [20] stood at 0.032 µM.

B22: F010301559 (VHH)
VHH: B20 VHH with G53D, D54G
As for B22, in assay [20], the “Qpatch IC50” value was determined as 0.012 µM.

B23: F010301566 (VHH)
VHH: B20 VHH with A23D, G53D, D54G
With B23, the “Qpatch IC50” value in assay [20] was 0.018 µM.

B24: F010301563 (VHH)
VHH: B20 VHH with G53D
On to B24, for which the “Qpatch IC50” value in assay [20] worked out at 0.005 µM.
